Test results: patent publication US5382658A, “Stability-enhanced variants of parathyroid hormone” (Allelix Biopharmaceuticals Inc., priority 1992, dated 1995)
Numbering of substitutions follows the chain as printed. Read-outs that look alike come from different tables or passages of the source.

B1: [His^25 ]hPTH (protein, UniProt P01270 32-115, looked up, variant R25H)
Parathyroid hormone: SVSEIQLMHNLGKHLNSMERVEWLHKKLQDVHNFVALGAPLAPRDAGSQRPRKKEDNVLVESHEKSLGEADKADVNVLTKAKSQ
B2: [His^25 His^26 Leu^27 ]hPTH (protein, UniProt P01270 32-115, looked up, variant R25H K26H K27L)
Parathyroid hormone: B1 Parathyroid hormone with K26H, K27L

Experiments:
ovariectomized rat = test: Ovariectomized rat model of osteoporosis, total skeletal calcium scan; assay type: in vivo; conditions: subcutaneous, once daily for 28 days, human PTH 150 μg/kg, variant dosed at 25 and 150 μg/kg, dose of the reported result not stated
Description: The P2 variant was also evaluated in vivo for its effect on skeletal tissue, in an ovariectomized rat model of osteoporosis. Formulations of the P2 variants were first prepared by reconstituting the P2 variant from lyophilized powder in 0.1M acetic acid, then diluting to 10 mM acetic acid by addition of normal saline vehicle and 2% (v/v) heat-inactivated rat serum, to generate a stock solution containing the variant at a concentration of about 150 μg/ml. The P2 formulation was then injected subcutaneously at the neck region, in selected volumes representing dosage sizes of 25 μg/kg and 150 μg/kg (8 rats/each dose). A third group of rats received human PTH at a dose of 150 μg/kg and a fourth group received vehicle alone. Treatment regimen consisted of single dose administration once daily for 28 days.
After treatment, the rats were sacrificed and evaluated by total skeletal calcium scan. Relative to rats receiving vehicle alone, the whole body calcium scanning results indicated an improvement in rats receiving human PTH (5.8% increase), and a still further improvement (9.6% increase) in rats receiving the [His^25 His^26 Leu^27 ] variant. It is believed that enhanced effects of this variant result from its greater half-life in vivo i.e. its resistant to serum-borne trypsin and/or other enzymes which otherwise degrade and/or inactivate the native hormone.

trypsin [1] = system: trypsin
Description: (§1) The stability of PTH and variants to degradation by trypsin was also quantified by SDS polyacrylamide gel electrophoresis (SDS-PAGE). Incubations of PTH or variant with trypsin were established. For example, a sufficient aliquot of lyophilized PTH or variant was first solubilized for 20 minutes at room temperature with 10 mM acetic acid (final concentration of 1 mg/mL) and then diluted about 20-fold with Tris buffer. About 10 μg of PTH (or variant) was removed for a preincubation, "time zero" time point, and was lyophilized. The incubations were initiated by addition of an appropriate amount of freshly prepared trypsin solution in Tris buffer for a final trypsin to PTH (or variant) ratio of 1:500 (w/w). The samples were incubated at room temperature. Aliquots of the appropriate volume corresponding to an initial amount of undigested PTH (or variant) of 10 μg were removed at specific times (2, 5, 20, 60, 240 minutes). These were quenched immediately by adding an equal weight of SBTI to trypsin (either 2 μL of SBTI in Tris at a concentration of 10 μg/mL or 0.02 μg SBTI was added to the time point containing 0.02 μg trypsin and 10 μg initial equivalent amount of PTH or variant in Tris buffer). Samples quenched at the various time points were then lyophilized.
(§2) Lyophilized samples containing 10 μg of intact and/or fragmented PTH or variant were solubilized in gel sample buffer and subjected to electrophoresis using suitable conditions to separate intact PTH from the smaller fragments (16.5% acrylamide gel, BioRad Mini-Protean II apparatus, 90 minutes, 100 mV). The gels were fixed and stained for protein with Coomassie Blue. The amount of intact, full length PTH present in each of the various samples (preincubation sample and time point samples) was quantified using a gel scanning method, which measures the quantity of stain and therefore the amount of protein scanned in each band. Initially, a standard curve was constructed by loading various amounts of PTH in each lane (2,2, 4, 6, 8, 10 μg per lane), scanning each lane, and then constructing a standard curve of the quantity of stain at the mobility of PTH as a function of the amount of PTH loaded per lane. With the gel scanning system, the quantity of stain was proportional to the amount of PTH loaded in the range of 1 to 10 μg per lane. Using this standard curve, the amount of intact PTH present in each sample was calculated from the quantity of stain at the mobility of intact PTH.
(§3) The amount of PTH (or variant) in the preincubation sample was termed Po (scanned amount corresponding to approximately 10 μg intact PTH or variant) and the amount at a given time, t, was defined as Pt.

[2] = system: adenylate cyclase activity in UMR-106 rat osteosarcoma cells; test: UMR-106 based adenylate cyclase assay (cAMP formation); assay type: cell-based; conditions: for EC50: UMR-106 cells, untreated samples, read-out: EC50, concentration effective for half-maximal stimulation of adenylate cyclase activity; for potency relative to hPTH (in words): UMR-106 adenylate cyclase assay
Description: In the present specification, PTH activity is defined in the context of the osteosarcoma-based adenylate cyclase assay employed conventionally in the art. Briefly, this assay provides an in vitro determination of the extent to which PTH stimulates adenylate cyclase activity in rat osteosarcoma cells of the `UMR` lineage, and thus provides an indication of PTH effects on bone tissue in vivo. Protocols for conducting the assay have been described by Rodan et al, 1983, J. Clin. Invest., 72:1511 (in which the osteosaracoma cells of the ROS lineage are employed) and by Rabbani et al, 1988, Endocrinol., 123:2709 (which employs the line UMR-106). […] The term EC50 refers to the concentration of PTH or variant effective for half-maximal stimulation of adenylate cyclase activity.
Thawed or fresh samples of human PTH(1-84) and of PTH variants obtained as described above were then evaluated for biological activity using a UMR-106 based adenylate cyclase assay and the protocol as described by Rabbini et al, 1988, Endocrinology, 123:2709, which is incorporated herein by reference. As noted, rat osteosarcoma cells of the UMR line are stimulated by PTH to produce adenylate cyclase, an enzyme which catalyzes intracellular conversion of ATP to its cylic monophosphate analogue, cAMP. In this assay therefore, PTH activity is determined by assaying radiometrically the formation of cAMP in PTH-stimulated UMR cells. The results of the assays, expressed in terms of EC50 (concentration of PTH or variant effective for half-maximal stimulation of adenylate cyclase activity), are presented in the table below: […]

[3] = Trypsin sensitivity: trypsin or mock incubation followed by UMR-106 adenylate cyclase assay; conditions: UMR-based adenylate cyclase assay after trypsin incubation under the exemplified conditions; read-out: EC50 following trypsin incubation
Description: PTH variants having an "improved stability in the presence of trypsin" are degraded by trypsin at a rate that is slower than a similarly treated native PTH control. An assay suitable for identifying a reduced tryptic digestion rate entails a two step procedure, in which a PTH variant and a native PTH control are separately incubated with trypsin for a defined period, and are then assayed for activity in the osteosarcoma-based assay just described. Protocols suitable for assaying trypsin sensitivity are described in the literature and are outlined in the examples herein.
To measure the sensitivity of a compound (native PTH or variants) to digestion with trypsin, duplicate incubations were established for each compound in either the presence of trypsin ("Trypsin Incubation") or the absence of trypsin ("Mock Incubation"). For example, a lyophilized aliquot of PTH (or variant) was solubilized for 20 minutes at room temperature in 10 mM acetic acid at a final concentration of 1 mg/mL (50 μg PTH or variant plus 50 μL 10 mM acetic acid). […] The appearance of the cleavage product was monitored as a function of time at 253 nm. […]
Parallel trypsin and mock incubations were established as follows. […] Dose-response curves were generated and the relevant EC50 values were calculated. […]

trypsin [4] = test: Trypsin degradation time course quantified by SDS-PAGE gel scanning
Description: as §1, §2, §3

Row | Molecule | increase in whole body calcium relative to rats receiving vehicle alone (ovariectomized rat) | Half-Life (from SDS-PAGE analysis) (trypsin [1]) | EC50 [2] | EC50 [3] | potency relative to hPTH (in words) [2] | Half-Life (from SDS-PAGE analysis) (trypsin [4]; Trypsin:PTH = 1:500 (w/w), room temperature, time when Pt/Po = 0.5) | initial material remaining (intact) (trypsin [4]; after 240 minutes, trypsin:PTH 1:500 (w/w)) | resistance to proteolysis by trypsin (in words) (trypsin [4]; trypsin to PTH ratio of 1:500 (w/w))
1 | human PTH(1-84) [hPTH, reference compound] | 5.8% | 25 ± 5 min | 1 nM | ~12 nM |  |  |  | 
2 | B1 |  | 27 ± 7 min | 2 nM |  | substantially equipotent |  |  | 
3 | B2 | 9.6% |  | 1.7 nM |  | substantially equipotent | > 240 min | more than 60% | almost completely resistant to proteolysis
